In PMC7712654, “Docking of acetyl-CoA carboxylase to the plastid envelope membrane attenuates fatty acid production in plants” (Nature Communications, 2020):

Biological target: T1, α-CT coiled-coil domain fused with HIS tag (α-CT-His), fluorescently labeled (Arabidopsis thaliana, fluorescently labeled using His-tag labeling kit (NanoTemper, MO-L008))
T1 construct: α-carboxyltransferase (α-CT), Arabidopsis thaliana, At2g38040, C-terminus / coiled-coil domain; also called C-terminus of α-CT; labeled α-CT coiled-coil domain; source: expressed in Luria Broth with IPTG (pET30a), purified on nickel agarose resin
Test: MST; 100 nM α-CT-His labeled with His-tag labeling kit, mixed with serial dilutions of CTI in PBS buffer; 100% LED power, high MST power, NanoTemper Monolith NT.115
Conditions: both partners purified

B1: coiled-coil domain of CTI1 fused with HIS tag (domain or fragment)
chain: PQISKAIAGADRKDLMRKLPKFIYDEEKALEKTRKVLAEKIAQLNSAIDDVSSQLKSEDTPNGAALSTDEIEATA
- fold higher affinity than CTI2 (from KD values): 100 fold
- fold higher affinity than CTI3 (from KD values): 10 fold
